Drawing on US20160347808A1 (IMMATICS BIOTECHNOLOGIES, published 2016), this text covers peptide exchange yield for 49 molecules.

Square brackets hold non-standard residues; d marks the D form. Ends that are not written are not given here. pS = N[C@@H](COP(=O)(O)O)C(=O)O Bounds are passed on as bounds.

The labels stand for the following.
B1: peptide RLLJPLSSA (SEQ ID NO 179) (peptide)
peptide: RLL[pS]PLSSA
notes: Printed with J for phosphoserine; the plain residue at position 4 is serine

The assay deals with T1, HLA-A*02:01 (peptide-receptive MHC class I monomer from UV-ligand exchange) (human).
T1 construct: Monomers were captured on streptavidin-coated plates
Briefly: UV-exchange ELISA (anti-b2m); exchange yield grade: + >=10%, ++ >=20%, +++ >=50%, ++++ >=75%. The text has this:
Candidate peptides for T cell based therapies according to the present invention were further tested for their MHC binding capacity (affinity). The individual peptide-MHC complexes were produced by UV-ligand exchange, where a UV-sensitive peptide is cleaved upon UV-irradiation, and exchanged with the peptide of interest as analyzed. Only peptide candidates that can effectively bind and stabilize the peptide-receptive MHC molecules prevent dissociation of the MHC complexes. To determine the yield of the exchange reaction, an ELISA was performed based on the detection of the light chain (β2m) of stabilized MHC complexes. The assay was performed as generally described in Rodenko et al. (Rodenko et al., 2006).
96 well MAXISorp plates (NUNC) were coated over night with 2 ug/ml streptavidin in PBS at room temperature, washed 4× and blocked for 1 h at 37° C. in 2% BSA containing blocking buffer. Refolded HLA-A*02:01/MLA-001 monomers served as standards, covering the range of 15-500 ng/ml. Peptide-MHC monomers of the UV-exchange reaction were diluted 100 fold in blocking buffer. Samples were incubated for 1 h at 37° C., washed four times, incubated with 2 ug/ml HRP conjugated anti-β2m for 1 h at 37° C., washed again and detected with TMB solution that is stopped with […]. Absorption was measured at 450 nm. Candidate peptides that show a high exchange yield (preferably higher than 50%, most preferred higher than 75%) are generally preferred for a generation and production of antibodies or fragments thereof, and/or T cell receptors or fragments thereof, as they show sufficient avidity to the MHC molecules and prevent dissociation of the MHC complexes.
For SLNKWIFTV [peptide SLNKWIFTV (SEQ ID NO 182)], the peptide exchange yield is at least 75%. Take KLMDYIDEL [peptide KLMDYIDEL (SEQ ID NO 162)]: the peptide exchange yield fell in the range of 50 to 75%. With TLLGGKEAQALGV [peptide TLLGGKEAQALGV (SEQ ID NO 175)], the peptide exchange yield lay in the range of 50 to 75%.

For the molecule FLKNELDNV [peptide FLKNELDNV (SEQ ID NO 161)], the peptide exchange yield was 50 to 75%. As for LLADEDSSYL [peptide LLADEDSSYL (SEQ ID NO 27)], the figure is 20 to 50%; as for TLQEVVTGV [peptide TLQEVVTGV (SEQ ID NO 183)], 50 to 75%. Turning to SLADRLIGV [peptide SLADRLIGV (SEQ ID NO 25)], the peptide exchange yield was at least 75%. For KLGDLMVLL [peptide KLGDLMVLL (SEQ ID NO 173)], the peptide exchange yield is 50 to 75%. Turning to RLIPDTLYSV [peptide RLIPDTLYSV (SEQ ID NO 3)], the peptide exchange yield was at least 75%.

On to ALAAARVEL [peptide ALAAARVEL (SEQ ID NO 17)], for which the peptide exchange yield fell in the range of 50 to 75%. Consider RLQETEGMVAV [peptide RLQETEGMVAV (SEQ ID NO 171)], for which the peptide exchange yield lay within 20 to 50%. To GLHNVVYGI [peptide GLHNVVYGI (SEQ ID NO 187)] belongs 50 to 75%. FLSSLKGGLL [peptide FLSSLKGGLL (SEQ ID NO 18)]: the peptide exchange yield lay in the range of 50 to 75%. On to KLLEFDQLQL [peptide KLLEFDQLQL (SEQ ID NO 160)], for which the peptide exchange yield was 50 to 75%.

On to GLASKENFSNVSL [peptide GLASKENFSNVSL (SEQ ID NO 26)], for which the peptide exchange yield lay in the range of 20 to 50%. With GLIDEVMVL (also called CYP2W1-001) [peptide GLIDEVMVL (SEQ ID NO 22)], the peptide exchange yield was 50 to 75%. RLYTKLLNEA [peptide RLYTKLLNEA (SEQ ID NO 19)]: the peptide exchange yield lay in the range of 50 to 75%. In the case of LLLDTVTMQV [peptide LLLDTVTMQV (SEQ ID NO 172)], the peptide exchange yield lay in the range of 50 to 75%.

Regarding YLKDGDVML [peptide YLKDGDVML (SEQ ID NO 20)], the peptide exchange yield fell in the range of 50 to 75%.

For the molecule QMLDVAIRV [peptide QMLDVAIRV (SEQ ID NO 29)], the peptide exchange yield lay in the range of 50 to 75%. Turning to VLIDHRWVL [peptide VLIDHRWVL (SEQ ID NO 21)], the peptide exchange yield is 50 to 75%. To YLAHFIEGL [peptide YLAHFIEGL (SEQ ID NO 169)] belongs 50 to 75%; to RLLHEVQEL [peptide RLLHEVQEL (SEQ ID NO 163)], 50 to 75%. Regarding GLLDPSVFHV [peptide GLLDPSVFHV (SEQ ID NO 158)], the peptide exchange yield lay in the range of 50 to 75%. On to VLDGVLMEL [peptide VLDGVLMEL (SEQ ID NO 24)], for which the peptide exchange yield lay within 50 to 75%.

Turning to FLDANGHFV [peptide FLDANGHFV (SEQ ID NO 23)], the peptide exchange yield was in the range of 50 to 75%. With RLLDFPEAMVL [peptide RLLDFPEAMVL (SEQ ID NO 165)], the peptide exchange yield is at least 75%. To AISEVIGKITA [peptide AISEVIGKITA (SEQ ID NO 189)] belongs 50 to 75%. Turning to FLVDGPRVQL [peptide FLVDGPRVQL (SEQ ID NO 188)], the peptide exchange yield is 50 to 75%. As for SLLDENNVSSYL [peptide SLLDENNVSSYL (SEQ ID NO 184)], the figure is 50 to 75%; as for GLIRFPLMTI [peptide GLIRFPLMTI (SEQ ID NO 168)], 50 to 75%. As for KMSEKILLL [peptide KMSEKILLL (SEQ ID NO 186)], the peptide exchange yield was in the range of 50 to 75%. For the molecule GLLEARGILGL [peptide GLLEARGILGL (SEQ ID NO 166)], the peptide exchange yield was 50 to 75%. In the case of VLYTGVVRV [peptide VLYTGVVRV (SEQ ID NO 185)], the peptide exchange yield fell in the range of 50 to 75%.

As for YLFREPATI [peptide YLFREPATI (SEQ ID NO 178)], the peptide exchange yield lay in the range of 20 to 50%. SVIDHIHLISV [peptide SVIDHIHLISV (SEQ ID NO 167)]: the peptide exchange yield was in the range of 50 to 75%. With ILLDDNMQIRL [peptide ILLDDNMQIRL (SEQ ID NO 174)], the peptide exchange yield was at least 75%. ALAGGITMV [peptide ALAGGITMV (SEQ ID NO 170)]: the peptide exchange yield was 50 to 75%. As to ALTEIQEFI [peptide ALTEIQEFI (SEQ ID NO 28)], the peptide exchange yield was at least 75%. Regarding VLVDDDGIKVV [peptide VLVDDDGIKVV (SEQ ID NO 159)], the peptide exchange yield fell in the range of 20 to 50%. For the molecule ALLPRYFFL [peptide ALLPRYFFL (SEQ ID NO 2)], the peptide exchange yield lay in the range of 20 to 50%.

On to NLFDLGGQYLRV [peptide NLFDLGGQYLRV (SEQ ID NO 181)], for which the peptide exchange yield lay within 50 to 75%. As to AMAEMVLQV [peptide AMAEMVLQV (SEQ ID NO 190)], the peptide exchange yield was 50 to 75%. As for VLVDQSWVL [peptide VLVDQSWVL (SEQ ID NO 16)], the peptide exchange yield fell in the range of 50 to 75%. In the case of RTLDKVLEV [peptide RTLDKVLEV (SEQ ID NO 176)], the peptide exchange yield lay within 20 to 50%. For the molecule QLFSEIHNL [peptide QLFSEIHNL (SEQ ID NO 191)], the peptide exchange yield was at least 75%. Take KMLDEILLQL [peptide KMLDEILLQL (SEQ ID NO 164)]: the peptide exchange yield was at least 75%. Regarding B1, the peptide exchange yield lay within 50 to 75%. Consider ALLQGAIESV [peptide ALLQGAIESV (SEQ ID NO 177)], for which the peptide exchange yield is 50 to 75%.
